B1: madanin-1 with a single sulfotyrosine at Tyr35 (peptide)
chain: MYPERDSAKEGNQEQERALHVKVQKRTDGDADYDE[sY]EEDGTTPTPDPTAPTAKPRLRGNKPHHHHHH
B2: madanin-1 with a single sulfotyrosine at Tyr32 (peptide)
chain: MYPERDSAKEGNQEQERALHVKVQKRTDGDAD[sY]DEYEEDGTTPTPDPTAPTAKPRLRGNKPHHHHHH
B3: chimadanin with a single biosynthesized sulfotyrosine at Tyr28 (peptide)
chain: MQPKEKTKGVEVEGNPATLISARQMDVSYDEYEDNGPDVIPGEPAKPRGGPKNGAASGKFDQIPDFSSESHHHHHHH
modifications: sulfotyrosine at Tyr28 (counted without the initiator Met; residue 29 of SEQ ID NO: 107 as printed)
B4: wildtype chimadanin (peptide)
chain: B3 chain
B5: chimadanin with a single biosynthesized sulfotyrosine at Tyr31 (peptide)
chain: B3 chain
modifications: sulfotyrosine at Tyr31 (counted without the initiator Met; residue 32 of SEQ ID NO: 107 as printed)
B6: chimadanin doubly sulfated at both Tyr28 and Tyr31 (peptide)
chain: B3 chain
modifications: sulfotyrosine at Tyr28 and Tyr31 (counted without the initiator Met; residues 29 and 32 of SEQ ID NO: 107 as printed)
B7: madanin-1 sulfated at both Tyr32 and Tyr35 (peptide)
chain: MYPERDSAKEGNQEQERALHVKVQKRTDGDAD[sY]DE[sY]EEDGTTPTPDPTAPTAKPRLRGNKPHHHHHH
B8: wildtype madanin-1 (peptide)
chain: MYPERDSAKEGNQEQERALHVKVQKRTDGDADYDEYEEDGTTPTPDPTAPTAKPRLRGNKPHHHHHH

Non-standard residues stand in square brackets, D forms with d. sY = N[C@@H](Cc1ccc(OS(=O)(=O)O)cc1)C(=O)O

The assay deals with thrombin. Briefly: chromogenic thrombin amidolytic activity assay; tight-binding model (Morrison equation).
As to B1, the Ki came out at 6.1 nM.
Next, B2: 1.3 nM; B3: 0.6 nM.
As to B4, the Ki is 12.9 nM.
In the case of B5 it was 1.5 nM; in that of B6, 0.1 nM; in that of B7, 0.5 nM.
Turning to B8, the Ki came out at 16 nM.

For the origin of these results see patent publication US20240344040A1, “PROKARYOTIC AND EUKARYOTIC CELLS WITH BIOSYNTHESIZED SULFOTYROSINE FOR GENETIC INCORPORATION” (William Marsh Rice University, priority 2023, published 2024).
